# Measurements from US20050101770A1 (SCHERING, published 2005).
# T1: recombinant hIL-10Ra (hIL-10Ra): FLAG-tagged protein (human, UniProt Q13651 22-235)
# T1 construct: The order of the receptor part and the FLAG tag is unknown; also called huIL-10Ra; not shown: FLAG tag
# T1 sequence (looked up): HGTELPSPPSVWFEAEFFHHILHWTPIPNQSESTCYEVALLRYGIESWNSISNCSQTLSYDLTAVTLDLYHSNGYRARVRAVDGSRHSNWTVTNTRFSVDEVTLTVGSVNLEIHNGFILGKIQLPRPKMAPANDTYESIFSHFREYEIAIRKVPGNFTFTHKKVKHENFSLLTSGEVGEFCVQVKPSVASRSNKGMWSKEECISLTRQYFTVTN
# B1: recombinant cyno IL-10 (cyno IL-10) (ligand, UniProt P79338 19-178, looked up)
# chain: SPGQGTQSENSCTRFPGNLPHMLRDLRDAFSRVKTFFQMKDQLDNILLKESLLEDFKGYLGCQALSEMIQFYLEEVMPQAENHDPDIKEHVNSLGENLKTLRLRLRRCHRFLPCENKSKAVEQVKNAFSKLQEKGVYKAMSEFDIFINYIEAYMTMKIRN
# B2: recombinant human IL-10 dimer (hIL-10-dimer) (ligand, UniProt P22301 19-178, looked up)
# chain: SPGQGTQSENSCTHFPGNLPNMLRDLRDAFSRVKTFFQMKDQLDNLLLKESLLEDFKGYLGCQALSEMIQFYLEEVMPQAENQDPDIKAHVNSLGENLKTLRLRLRRCHRFLPCENKSKAVEQVKNAFNKLQEKGIYKAMSEFDIFINYIEAYMTMKIRN
# notes: also called hu IL-10
# B3: Monoclonal humanized antibody SCH 708980 to recombinant human IL-10 (humanized 12G8) (antibody, human IgG1, kappa, V domains shown)
# VH: QVQLVESGGGVVQPGRSLRLSCAASGFTFSDYHMAWVRQAPGKGLEWVASITLDATYTYYRDSVRGRFTISRDNSKNTLYLQMNSLRAEDTAVYYCARHRGFSVWLDYWGQGTLVTVSS
# VL: DIQMTQSPSSLSASVGDRVTITCKTSQNIFENLAWYQQKPGKAPKLLIYNASPLQAGVPSRFSGSGSGTDFTLTISSLQPEDFATYYCHQYYSGYTFGPGTKLELKR
# notes: also called h12G8; hu12G8
# B4: recombinant mouse IL-10 (mIL-10) (ligand, UniProt P18893 19-178, looked up)
# chain: SRGQYSREDNNCTHFPVGQSHMLLELRTAFSQVKTFFQTKDQLDNILLTDSLMQDFKGYLGCQALSEMIQFYLVEVMPQAEKHGPEIKEHLNSLGEKLKTLRMRLRRCHRFLPCENKSKAVEQVKSDFNKLQDQGVYKAMNEFDIFINCIEAYMMIKMKS
# B5: rat anti hIL-10 mAb 12G8 (r12G8): JES3.12G8 (antibody, V domains shown)
# VH: EVQLVESGGGLVRPGGSLRLSCTASGFTFSDYHMAWVRQSPDKGLEWVASITLDATYTYYRDSVRGRFTISRNNAKTTLYLQMDSLRSEDTATFYCTRHRGFSVWLDYWGQGVMVTVSS
# VL: DIQMTQSPSLLSASVGDRVTLNCKTSQNIFENLAWYQQKLREPPKLLIFNASPLQAGIPSRFSGSGSGTDFTLTITSLQPEDVATYFCHQYYSGYTFGPGTKLELKR
# notes: Rat monoclonal antibody; also called Rat 12G8; JES.12G8
# Experiments:
# [1] = biological target: B3; assay: IGEN competitive ECLA, mean ± S.D. (n); summary of Table 15
# Description: (§1) Materials used. 96 well Polypropylene plates (Costar, Cat. No. 3365, Fisher Sci. Cat. No. 07200697); assay buffer of 0.1% BSA, 0.05% tween 20, PBS pH 7.5; paramagnetic beads (Streptavidin-Dynabeads, Igen, Inc., Cat. No. 110029); recombinant human IL-10 dimer (hIL-10-dimer); recombinant human IL-10-monomer (hlL-10-mono); recombinant mouse IL-10 (mIL-10); recombinant cyno IL-10 (cyno IL-10); and recombinant hIL-10Ra (hL-10Ra): FLAG-tagged protein. Ori-Tag labeled anti-FLAG M2 monoclonal antibodies were prepared using Ori-Tag-NHS ester (Igen, Inc. Cat. No. 110034) according to manufacturer's protocol (OriTag label: IgG challenge ratio 8:1). Anti-Flag M2 monoclonal antibodies were purchased from Sigma (Cat. No. F3165). Ori-Tag labeled anti hIgG 1A2 monoclonal antibodies were prepared as above using rat anti hIgG monoclonal antibodies. Ori-Tag labeled anti rat IgG antibodies were prepared as above from polyclonal Goat anti rat IgG (H+L) antibodies (Jackson Immunoresearch Laboratories, Inc. PA, Cat. No. 112-005-143). Biotinylated recombinant human IL-10 (hIL-10-biotin) was prepared using TFP-PEO-biotin (Pierce, Cat. No. 21219) according to manufacturer's recommendations (Pierce bulletin 0874). The rat anti hIL-10 mAb 12G8 (r12G8): JES3.12G8 and humanized anti hIL-10 mAb 12G8 (hl2G8-1) were prepared as described herein.
# (§2) Protocol. ⅓ serial dilutions in 50 microliters of the assay buffer were made in 96-well microtiter plate for all unlabeled IL-10 preparations (mIL-10, cyno IL-10, hIL-10 dimer, hIL-10 mono) starting with 3 μg/ml in the first well. All samples were run in duplicates. 50 μl of hIL-10-biotin at 25 ng/ml was added to each well, followed by the addition of either hIL-10Ra (50 μl at 100 ng/ml) or […] (50 μl at 10 ng/ml). 50 microliters of Ori-Tag conjugated secondary antibodies was added to each well at 500 ng/ml conc. For hIL-10Ra, r12G8 and h12G8 the following Ori-Tag conjugated were used accordingly: anti-FLAG M2-OriTag, anti-rat IgG-OriTag and anti hIgG 1A2-OriTag. Finally to each well 50 μl of Streptavidin-Dynabeads at 0.1 mg/ml was added. After a one hour incubation at room temperature the plate was processed by the M-series M8/384 analyzer. Percent inhibition of the signal by unlabeled IL-10 preparations was calculated relative to the control samples. To plot the data and calculate IC₅₀ the GraphPad Prism Software was used.
# [2] = biological target: B5; assay: as above
# Description: as §1, §2
# [3] = biological target: B3; assay: competitive ECLA (IGEN): unlabeled IL-10 varied, competitor hIL-10-biotin
# Description: as §1, §2
# [4] = biological target: B5; assay: as above
# Description: as §1, §2
# [5] = biological target: T1, recombinant hIL-10Ra (hIL-10Ra): …; assay: as above
# Description: as §1, §2
# [6] = biological target: B2; assay: KinExA, solution equilibrium, hIL-10 run #2
# Protocol: (§3) The equilibrium dissociation constant (Kd) for humanized antibody SCH 708980 was determined using KinExA 3000 (Sapidyne Instruments Inc.). KinExA uses the principle of the Kinetic Exclusion Assay method based on measuring the concentration of uncomplexed antibody in a mixture of antibody, antigen and antibody-antigen complex. The concentration of free antibody was measured by exposing the mixture to a solid-phase immobilized antigen for a very brief period of time. In practice, this was accomplished by flowing the solution phase antigen-antibody mixture past antigen coated particles trapped in a flow cell. Data generated by the instrument were analyzed using custom software. Equilibrium constants were calculated using a mathematical theory based on the following assumptions: [0139] 1. The binding follows the reversible binding equation for equilibrium: Kₒₙ[Ab][Ag]=Koff[AbAg] [0140] 2. Antibody and antigen bind 1:1, and total antibody equals antigen-antibody complex plus free antibody [0141] 3. Instrument signal is linearly related to free antibody concentration
# (§4) Experimental conditions: All runs were done in duplicate. For hIL-10 runs the following conditions were used: [0145] Sample volume: 1.5 ml [0146] Sample flow rate: 0.25 ml/min [0147] Label volume: 0.5 ml [0148] Label flow rate: 0.25 ml/min [0149] mAb conc.: 0.1 nM [0150] Highest Ag (hlL-10) conc.: 4.0 nM [0151] […]
# [7] = biological target: B1; assay: Biacore, mean ± S.D. (n); format not described
# [8] = biological target: B2; assay: Biacore, mean ± S.D. (n); format not described
# [9] = biological target: B4; assay: Biacore, mean ± S.D. (n); format not described
# [10] = biological target: B1; assay: KinExA, mean ± S.D. (n) of the runs of Table 14
# [11] = biological target: B2; assay: KinExA, mean ± S.D. (n) of the runs of Table 14
# [12] = biological target: B4; assay: KinExA, mean ± S.D. (n) of the runs of Table 14
# [13] = biological target: B4; assay: KinExA, solution equilibrium, mIL-10 run #3
# Protocol: as §3
# (§5) For mIL-10 runs the following conditions were used: [0154] […] Sample flow rate: 0.25 ml/min [0156] Label volume: 0.5 ml [0157] Label flow rate: […] [0158] mAb conc.: 1 nM [0159] Highest Ag (mIL-10) conc.: 50 nM [0160] Lowest Ag (mIL-10) conc.: 48.8 pM […]
# [14] = biological target: B1; assay: KinExA, solution equilibrium, cyno IL-10 run #1
# Protocol: as §3
# (§6) For cyno IL-10 runs the following conditions were used: [0163] Sample volume: 2 ml [0164] Sample flow rate: 0.25 ml/min [0165] Label volume: 1 ml [0166] Label flow rate: 0.25 ml/min [0167] mAb conc.: 0.1 nM [0168] Highest Ag (mIL-10) conc.: 5.0 nM [0169] Lowest Ag (mIL-10) conc.: 4.88 pM […]
# [15] = biological target: B2; assay: KinExA, solution equilibrium, hIL-10 run #3
# Protocol: as §3, §4
# [16] = biological target: B4; assay: KinExA, solution equilibrium, mIL-10 run #2
# Protocol: as §3, §5
# [17] = biological target: B2; assay: KinExA, solution equilibrium, hIL-10 run #1
# Protocol: as §3, §4
# [18] = biological target: B4; assay: KinExA, solution equilibrium, mIL-10 run #1
# Protocol: as §3, §5
# [19] = biological target: B1; assay: KinExA, solution equilibrium, cyno IL-10 run #3
# Protocol: as §3, §6
# [20] = biological target: B1; assay: KinExA, solution equilibrium, cyno IL-10 run #2
# Protocol: as §3, §6
# [21] = biological target: T1, recombinant hIL-10Ra (hIL-10Ra): …; assay: competitive ECLA (IGEN): unlabeled IL-10 against hIL-10-biotin for FLAG-tagged hIL-10Ra
# Description: as §1, with “Biotinylated recombinant human IL-10 (hIL-10-biotin) was prepared using TFP-PEO-biotin (Pierce, Cat. No. 21219) according to manufacturer's recommendations (Pierce bulletin 0874). The rat anti hIL-10 mAb 12G8 (r12G8): JES3.12G8 and humanized anti hIL-10 mAb 12G8 (hl2G8-1) were prepared as described herein.” left out
# Protocol. ⅓ serial dilutions in 50 microliters of the assay buffer were made in 96-well microtiter plate for all unlabeled IL-10 preparations (mIL-10, cyno IL-10, hIL-10 dimer, hIL-10 mono) starting with 3 μg/ml in the first well. […] Percent inhibition of the signal by unlabeled IL-10 preparations was calculated relative to the control samples. […]
# [22] = biological target: B2; assay: KinExA, mean (n)
IC50 [1] [pM],IC50 [2] [pM],IC50 [3] [pM],IC50 [4] [pM],IC50 [5] [pM],Kd [7] [pM],Kd [8] [pM],Kd [9] [pM],Binder,also measured
4900,6600,4900,6600,17600,–,–,–,B1,–
4000,4700,4000,4700,2900,–,–,–,B2,–
–,–,–,–,–,659,511,8600,B3,Kd [6]: 32.3 pM; Kd [10]: 76 pM; Kd [11]: 25 pM; Kd [12]: 286 pM; Kd [13]: 308 pM; Kd [14]: 39.7 pM; Kd [15]: 15.5 pM; Kd [16]: 267 pM; Kd [17]: 27.4 pM; Kd [18]: 282 pM; Kd [19]: 92.5 pM; Kd [20]: 96.6 pM
53000,38000,53000,37900,–,–,–,–,B4,binding result [21]: no binding (tested: unlabeled IL-10 titrated from 3 µg/ml)
–,–,–,–,–,330,277,7400,B5,Kd [22]: 23 pM
